# *1 amine or outer side, *2 acyl side, *3 side chain or, on linkers, in order; H or OH if unused. Where a SMILES comes first, the peptide text is derived from it. Where no end group is shown, it is not given here. [ ]: non-standard residue; d: D form. The star is where a group is joined. X1 = CCn1cc(C[C@H](N[*:1])C(=O)[*:2])c2ccccc21; X3 = COc1ccc(C[C@H](N[*:1])C(=O)[*:2])cc1C; X4 = O=C([C@H](Cc1ccc(CO)cc1)N[*:1])[*:2]; Piperazinyl(4-Me) = CN1CCN(*)CC1; Ac4c = NC1(C(=O)O)CCC1
# B1: VIB-0068909 (peptide)
# peptide: DIXWS
# modifications: D-aspartic acid at position 1; position 3 (X) is the non-natural residue F57 = 4-methylaniline
# notes: Peptidomimetic 5-mer; X marks the non-natural residue
# B2: VIB-0068912 (peptide)
# peptide: DIXWS
# modifications: D-aspartic acid at position 1; position 3 (X) is the non-natural residue F86 = 1-chloro-4-methylbenzene
# notes: as for B1
# Biological target: T1, GABABR1a-SD1 (SD1-FITC-9mer complex) (Homo sapiens, UniProt Q9UBS5)
# T1 construct: The synthetic gene encoding for residues 26-96 of the Sushi1 protein was cloned into a pFloat-SUMO vector; His-SUMO (with 3C protease site) (N, cleaved yes); made in house; host or cells: E. coli BL21(DE3)
# Experiment: Fluorescence polarization (FP) competition assay with FITC-9mer
# Assay type: binding
# Conditions: competition with FITC-9mer for SD1
# Method: Intrigued by the surprising results of the 5-mer, it was decided to set up a medium- to high-throughput screen to optimize the 5-mer sequence. Several assays were tested to find a reproducible, robust and cost-effective assay that is also suitable for high-throughput screening. A fluorescence polarization (FP) assay was selected. FP measurements are well-known for receptor binding assays. The assay is based on the rotational movement of fluorescently labelled molecules in solution. […] The FP assay was optimized using the FITC labelled sAPP 9-mer (FIG. 1).
# (§1) To screen for GABABR1a binders using unlabelled test compounds, the assay was turned into a competition assay using FITC-9mer. […] To validate this inhibitor assay, the IC50 values were determined of the 17-mer, 9-mer, 5-mer as well as those from 3 negative controls: 10-mer, scrambled 17-mer and a scrambled 9-mer (FIG. 2).
# (§2) To determine if the peptides of this application were able to disrupt the SD1-9-mer complex, each peptide (in single point or dose-response curve) tested was incubate with SD1 protein for 1 h at RT. After this initially incubation, FITC-9mer was added to the previous mix and incubated during 2 h at RT. The signal intensity was measure in an appropriate plate reader using the following settings: Number of flashes per well: 200; Excitation: F482-16; Dichroic filter: FLP 504; Emission A F530-40; Gain A: 738, Gain B: 736. The assay was conducted in a 384-well plate.
row,Molecule,IC50
1,"CC[C@H](C)[C@H](NC(=O)[C@H](N)CC(=O)O)C(=O)N[C@@H](Cc1ccc(O)cc1)C(=O)N[C@@H](Cc1c[nH]c2ccccc12)C(=O)N[C@@H](CO)C(=O)O [VIB-0068902, dIYWS]",11.6 µM
2,"CC[C@H](C)[C@H](NC(=O)[C@H](N)CC(=O)O)C(=O)N[C@@H](Cc1ccc(O)cc1)C(=O)N[C@@H](Cc1ccc(O)cc1)C(=O)N[C@@H](CO)C(=O)O [VIB-0068914, dIYYS] (H-[dD]IYYS-OH; N-terminus and C-terminus assumed)",25.1 µM

# Same assay, conditions: peptide at 50 μM; inhibition of FITC-9mer binding to SD1
row,Molecule,inhibition at 50 µM
1,CC[C@H](C)[C@H](NC(=O)[C@H](N)CC(=O)O)C(=O)N[C@@H](Cc1ccc(O)cc1)C(=O)N[C@@H](Cc1c[nH]c2ccccc12)C(=O)N[C@@H](CO)C(=O)Nc1nncs1 [VIB-0068870],34.6%
2,CC[C@H](C)[C@H](NC(=O)[C@H](N)CC(=O)O)C(=O)N[C@@H](Cc1ccc(O)cc1)C(=O)N[C@@H](Cc1c[nH]c2ccccc12)C(=O)N[C@@H](CO)C(=O)NCC(=O)N1CCN(C)CC1 [VIB-0068875] (H-[dD]IYWSG-{Piperazinyl(4-Me)}; N-terminus assumed),41.8%
3,CC[C@H](C)[C@H](NC(=O)[C@@H](CC(=O)O)NC(=O)C1(N)CCC1)C(=O)N[C@@H](Cc1ccc(O)cc1)C(=O)N[C@@H](Cc1c[nH]c2ccccc12)C(=O)N[C@@H](CO)C(=O)O [VIB-0068884] (H-[Ac4c][dD]IYWS-OH; C-terminus assumed),41.5%
4,CC[C@H](C)[C@H](NC(=O)[C@H](N)CC(=O)O)C(=O)N[C@@H](Cc1ccc(CO)cc1)C(=O)N[C@@H](Cc1c[nH]c2ccccc12)C(=O)N[C@@H](CO)C(=O)O [VIB-0068896] (H-[dD]I[X4]WS-OH; N-terminus and C-terminus assumed),56.6%
5,"CC[C@H](C)[C@H](NC(=O)[C@H](N)CC(=O)O)C(=O)N[C@@H](Cc1ccc(O)cc1)C(=O)N[C@@H](Cc1c[nH]c2ccccc12)C(=O)N[C@@H](CO)C(=O)O [VIB-0068902, dIYWS]",76.8%
6,CC[C@H](C)[C@H](NC(=O)[C@H](N)CC(=O)O)C(=O)N[C@@H](Cc1cn(CC)c2ccccc12)C(=O)N[C@@H](Cc1c[nH]c2ccccc12)C(=O)N[C@@H](CO)C(=O)O [VIB-0068904] (H-[dD]I[X1]WS-OH; N-terminus and C-terminus assumed),26.7%
7,CC[C@H](C)[C@H](NC(=O)[C@H](N)CC(=O)O)C(=O)N[C@@H](Cc1ccc(OC)c(C)c1)C(=O)N[C@@H](Cc1c[nH]c2ccccc12)C(=O)N[C@@H](CO)C(=O)O [VIB-0068906] (H-[dD]I[X3]WS-OH; N-terminus and C-terminus assumed),70.8%
8,CC[C@H](C)[C@H](NC(=O)[C@H](N)CC(=O)O)C(=O)N[C@@H](Cc1cccc(C(=O)O)c1)C(=O)N[C@@H](Cc1c[nH]c2ccccc12)C(=O)N[C@@H](CO)C(=O)O [VIB-0068908],53.1%
9,CC[C@H](C)[C@H](NC(=O)[C@H](N)CC(=O)O)C(=O)N[C@@H](Cc1ccc(N)cc1)C(=O)N[C@@H](Cc1c[nH]c2ccccc12)C(=O)N[C@@H](CO)C(=O)O [VIB-0068909],44.2%
10,CC[C@H](C)[C@H](NC(=O)[C@H](N)CC(=O)O)C(=O)N[C@@H](Cc1ccc(Cl)cc1)C(=O)N[C@@H](Cc1c[nH]c2ccccc12)C(=O)N[C@@H](CO)C(=O)O [VIB-0068912],66.2%
11,"CC[C@H](C)[C@H](NC(=O)[C@H](N)CC(=O)O)C(=O)N[C@@H](Cc1ccc(O)cc1)C(=O)N[C@@H](Cc1ccc(O)cc1)C(=O)N[C@@H](CO)C(=O)O [VIB-0068914, dIYYS] (H-[dD]IYYS-OH; N-terminus and C-terminus assumed)",72.4%
12,PVHMS [VIB_P44],-7%

# Biological target: T2, Sushi domain 1 of the human GABA B1a receptor (human, UniProt Q9UBS5 26-96)
# T2 construct: Purified recombinant protein from E. coli; also called SD1; GABABR1a-SD1
# T2 sequence (Q9UBS5 26-96 limits assumed): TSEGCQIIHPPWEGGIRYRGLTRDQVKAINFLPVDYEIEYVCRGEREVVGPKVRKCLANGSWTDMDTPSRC
# Experiment: FP competition vs FITC-9mer on purified SD1
# Conditions: not given
# Method: as §1
# Based on structural information of DIYWS-SD1 and DIWWS-SD1 co-crystals, 48 peptides containing non-natural residues were manually designed and checked for binding to the GABABR1a SD1 in the FP assay at a concentration of 50 μM. These non-natural peptides were categorized based on the IC50 values obtained in the FP assay (Table 3). […] The listed non-natural 5-mers all share D-aspartate was on position 1 (residue position 4 of the 9-mer), L-isoleucine on position 2 (residue position 5 of the 9-mer), L-tryptophane on position 4 (residue position 7 of the 9-mer) and L-serine on position 5 (residue position 8 of the 9-mer), while position 3 is selected from the list consisting of L-tyrosine, isoethylmethyl-benzene, 6-chloro-3-methyl-1H-indole, methylcyclohexane, ethylcyclohexane, 2-naphthalene, ethylbenzene, 1,1-difluoro-4-cyclohexyl, 4-methyl-1-methoxy-2-methylbenzene, 1-chloro-4-methylbenzene, 4-methylphenyl-methanol, 3-methylbenzoic acid and 4-methylaniline.
Molecule,% inhibition 50 µM,IC50
B1,44.2%,88.3 µM
"[dD]IYWS-{N‑(1,3,4-thiadiazol-2-yl)amide} (also called VIB-0068870-001; dIYWS*) [VIB-0068870]",34.6%,16.5 µM
[dD]IYWS-{N‑(2-(4-methylpiperazin-1-yl)-2-oxoethyl)amide} (also called dIYWS**) [VIB-0068875],41.8%,71.2 µM
"{(1-aminocyclobutyl)N‑methanone}-[dD]IYWS (not fully specified, also called *dIYWS) [VIB-0068884]",41.5%,100 µM
[dD]IYWS (also called dIYWS) [VIB-0068902],76.8%,–
[dD]IYYS (also called dIYYS) [VIB-0068914],72.4%,–
B2,66.2%,32.7 µM

# Biological target: T2, Sushi domain 1 of the human GABA B1a …
# Experiment: FP competition vs FITC-9mer on purified SD1
# Conditions: not given
# Remark: another data set of the same source
# Method: Next, 35 variants of the DVWWG 5-mer peptide containing natural residues were tested in the above described FP assay. The peptides were tested at a concentration of 50 μM.
# as §2
Molecule,% inhibition 50 µM,IC50
PVHMS [VIB_P44],-7%,186 µM
GVYWS [VIB_P60],47.5%,–
NVWWG [VIB_P56],17.9%,–
"DIYWS (not fully specified, also called VIB_43; DIYWS) [VIB_P43]",48.6%,21.2 µM
PIYWS [VIB_P49],25%,–
GIYWS [VIB_P47],53.4%,–
DIFWS [VIB_P35],55.9%,–
NIYWS [VIB_P63],19.4%,–
NIWWG [VIB_P65],41.4%,–
DVWWS [VIB_P39],85.5%,14 µM
DIHWS [VIB_P37],20%,35.6 µM
NIWWS [VIB_P66],66.4%,–
DIYWG [VIB_P42],47.9%,–
NFYWS [VIB_P58],-7%,–
NVWWS [VIB_P48],33.5%,–
NIYWG [VIB_P68],15.9%,–
DIWWG (also called VIB_29) [VIB_P29],75%,16.5 µM
SVYWS [VIB_P41],5.28%,–
DVYWG [VIB_P53],33.5%,–

# Reference: patent US20240376149A1, “Novel Modulators of GABABR1a” (VIB VZW, priority 2021, published 2024)
